# Assay results reported in the DeepSol protein solubility set.
# Test: soluble on expression in E. coli; label from the status in PepcDB or PDB records
row,Sequence,soluble on expression in E. coli
1,MGSDKIHHHHHHMSSIFSLEGIKALGPDELREIQRGGLPVVIHFGDAGDDFLAYVSDHATEWLGTDAIRTVDARRFMEDKEWKAPMLTSEVLPKTIIVDPARWGDSFADKVAALDMTAFYSSNPVLLDYNDAFEVVFLFSTFYHHTMVSVTDFCNLRCRGCSFHGDDSRYDFAASRGKTERQELKEEDYYLFLDQRKPGDDLLFCGTGELFVSKKAMPYIREAIRRGLHVRILTNGMLVDDKVARELVELGVGAVLFSIDGHTKEIVESIRLGADYDRILANLRNLMRVRDEAGSGMIIGVQSGWFDEVKTRKDEILEFWKEFGIDTFSFFAEQVGWFQCIPMHEDKVMPVKTHACFNSLITPVLMTNGYVAPCTGNYQAEWSSLSSSWMKHISEAPFDEIIRYYRKMRTDPASPYRQRCAMCIGRLSTYVNSEYVSAYAEGYRFSERKSDKEAAFVKFSPQDEKTGFTLKKLWNRLLRR,not soluble
2,MGSDKIHHHHHHMSSNSRVYGIVPSKRLGRSLGVSPIPFKTCTYSCVYCQLGRTTNFTVKRQTFFPLKVFEEELKGFVKRHRYDFDVVSIVGEGEPTLYTPLDALIDLCKSITGKPVVLITNGSLFWSEKVRKEAKLSDIIMPTLSAWDEKSFRTIHKPHKNLSFQKVFEGLKKFRREYSGEIWLEVMLVKGLNDFALEELKEKISQVESDRVYVNVPVRPPAEGWVEPPDEETIEKAKELFNAASIETPAASRFIAAGEGIDAVLNVIKRHPMNEEEVRDLLTSQKIDPKPVLEKLRSCKNVKIIEYSGRRYYRYTTAE,not soluble
3,MGSDKIHHHHHHMSSSAKPLPTIERPREDASGRARVPGWVIGIDLGGTKILAGIARTQEQIIATREEPTLHGEDAPVLAQMARLITSLLSDAGALAQELDNVVIGVPSAVDPQTGLSSLSPNLALPVDRPLADLMSRFVSCPVTVENDVNLAAYGEAWAGAGQGLGSLVFVSFGTGVGMGIVLDGEPWRGAAGRAGEIAYLPVGAAPHETAPLSENGLYEDGVGTSGIRQRFTRDGGTVAELFSLARSGNEQARLAIDSVAKQASIGIAAVHALLDPAVTVIGGGIGSQPEFFTLLQAHLQPLLPFESPLKQSRLGVQAGMIGAVALALKNRVPHPEKSNAENL,not soluble
4,MGSDKIHHHHHHMSSSGYVPDNKNLKKSSGTPNLFFDSRKNIFFKRDEKNVAYEVTSTQLPAMIGGAFVDLFMTKGHMREPHWHPNAWELDVVVSGEAVTSILNPETNQLQNYHMKAGQTVFIPMGWWHWITAVTEEVQLHLFFNNDQFETAEGSDILRLTPPEVFQAAYGVSAEKLGKDLSPIKESVVIGPPNLNRIKGVKESDDSNIVVTLNGQITSCEIE,not soluble
5,MGSDKIHHHHHHMSSTHTGIEWTDKTWNPTTGCDKVSPGCRYCYAEALTERFPQSFPTGFKLNLHPERLEQPKRWRTPSRIFVNSMSDLFHEDVPFSFLQEIFSIMRETPWHIYQILTKREENLVDLAPKLEWTENIWMGVSVESQRYTYRIDALRKVPAAVRFLSCEPLLESLNLDLQNIDWVIVGGESGYNHRPVKPEWIREILQQTREAEVAFFFKQWGGKHSKAGGRMLDDHTWEEMPKAWRKHIIKWQKKFHGQPKLHELEQKYLMSTK,not soluble
6,MGSDKIHHHHHHMSTDKLAIIAVTERGRDLAITLTKTVAATIFVPEKHCTEQTNSLTPDFGTAMREIFTKYQALICIMATGIAVRTLAPVIEDKLSDPAVLVMDEHGKFIISLLSGHVGGANELTERIATITGGAAVITTATDRANVAAIDNIAKQLNGYLPDFKATTKRINGLLAAGKEVGLYIDEPLEIDTRGFTMEEVSPQVYISTKYKLQVATHERIQLVPKQFILGVGCRKGVSAETIDAAFTHFCEQENIHPRAFREIHSITLKAEEPAILHLAEKWHVPFIVHPAEELQTVAGKYPTSAFVQKTVQVGNVALSSADIGSNGNVVTSRFAENGVTFAAGKLTKNSEVAK,not soluble
7,MGSDKIHHHHHHMSTNTTSHSTTHSTISSQAVVIKQADFIESIADSLQYISYYHPKDFVDAMTKAYEREESAAAKDAIAQILINSRMSAEGKRPLCQDTGIVTTFVKIGMSVQWDKTDMTVQEMVDEGVRRAYTNPDNPLRASIVSDPAGARKNTKDNTPSVVHIDMVAGNQIEVMIAAKGGGSENKSKMAMLNPSDDIAAWVEKTLPTMGAGWCPPGMLGIGIGGTAEKAAVLAKESLMDPVDIHELMARGAETTEEKLRLDIFERANNLGIGAQGLGGLTTVLDVKIKSVPTHAASKPVVMIPNCAATRHVHFHLDGTGPVDLVPPSLSDWPEITREAGENTHRVNLDTVTQAEIETWKSGDTLLLNGKMLTGRDAAHKRIQMLLESGEGLPAGVDFTGKFIYYVGPVDPVGDEVVGPAGPTTATRMDKFTDMMLDQTGLMGMIGKSERGPETVASIKKHKAVYLMAVGGAAYLVSKAIKKSRVVAFEDLGMEAIYEFDVQDMPVTVAVDTNGVNAHETGPAIWKINIANSKANK,not soluble
8,MGSDKIHHHHHHMSTTASIENIDYWRHPSLSGIELSQAEFTHFSFDKHVHLDYHLGVVTQGAQQFVNKGSYYQLGQHSLSTLNPDDTHDGQSRDAEGYRVKVMSIPVEYMNEVSQELGLKEHFFSAPMVDDALLYHYFIHLHELLIQGQVTALASESHLFNFIQLLLRRHPSGILKCNSPQGLSTLQLGLVKQRMHDEPWHNTQLETLAGEVNLSKFQFLRQFKQATGMTPHAYLKRVRLELAKKSLCHGTLVADVAQQLGFFDQSHLNKAFKQAFLLSPVQFQRRML,not soluble
9,MGSDKIHHHHHHMSWPLDDETASPHFSIRCLEEPMLINADFSRRAIVTPHEYQWVASPQGGVERVMLDRVGAEKARATSIVRYAPGSHFPRHQHPAGEEILVLSGTFSDEGGHYPAGWYLRNPPGSCHQPSSREGAMIFVKLRQMPLHEARRVRVDTRDPAAWRRQNGREVCPLFADDAEQVCLHRMAPNDALVAAQGDGAELLVLTGAVVAEGEIYGRGSWIRVPADDSLHVVAASQGATVYLKTGLPVAIGAEV,not soluble
10,MGSDKIHHHHHHMSWRYALKNYVTSPETVNDDTVTYFDDKVSIIRDSFPKSECHLLILPRTMQLSRSHPTKVIDAKFKNEFESYVNSAIDHIFRHFQEKFRIKKSDDDKDPCWDDILKDKNKFVRNFVQVGIHSVPSMANLHIHVISKDFHSVRLKNKKHYNSFNTGFFISWDDLPLNGKNLGTDKEIETTYLKEHDLLCCYCQRNFSNKFSLLKKHLELEFNSHFELK,not soluble
11,MGSDKIHHHHHHMTAALPAGSDLVIVLPHLGPGGAQKVALMAAEHFLVQGRQVTLVTLLPDKPLSHAVPEGLRWVDLGPAVAETTSNRAPIARIWRFSCTWGRRSLAWISLVIGWKVLKRLVPGQAPLFVQWLVSSASGVQATLLRDLLYAGKPARVLSLLTRTNLLCCQAMWALPGHLVVSERNDPRLQKQSFPWLRLRSWLWQRADVITANTIGVLEGLQHCHPAMADDMRLLPNPLVVDSHPGNHSDEPASGTCFLAVCRLVPQKGIDLLIQAYAQLPEPLREMWPLLIAGDGPERASLETLASSLLPRGQVRFMGFQRNPQVLYHRDAVFVLSSRFEGMPNSLLEAMGSGLAVIVSDASPGPLEVVVHGKSGWVVPTEKVTLLAEAMQAMAENPALRCRLGDAAAEFMDAYSWDTLDPIWSDILCLEKPG,not soluble
12,MGSDKIHHHHHHMTAEDTYKTIVEPSEGIYTEKRSKFIAIALPVRTLDEIKAHLETYQKKYYDARHVCYAYMLGAARKDFRANDNGEPSGTAGKPILGQINSNELTDILIIVVRYFGGIKLGTSGLIVAYKAAAAEAISAATIIEKTVDEEVTVMFEYPFMNDIMRIVKEEEPEILSQSYDMDCSMTLCIRRSMMPKLRARLEKVETARILDEE,not soluble
13,MGSDKIHHHHHHMTAFNPIAIIPHYNHSATVGSVAEQLNQLGLPVLIVDDGSSLEHKAVIEQFPQNEQLSILFCEINGGKGAAFKAGLKQTQKLGFSHAIQVDADGQHNIIDVKKMLEQAEKSPNAIVCGKPIYGKDAPKSRLYGRKITDFWNAINTLSFDIKDGMCGFRIYPIAQIMPILAQEQIGGGMDFDTEILIHSYWQKIPLIWVDTPVKYEKDGISHFRGWADNWLISKMHARLFFRMLKRLFTGKIR,not soluble
14,MGSDKIHHHHHHMTANPTVFTFADSTDLILEIPDSTTANLDSQLFSHPYSRYQAYLNELCLSAVLPWLQEDFSTQAKVWPSATTLASLWELVNGTAVTIDGKRFILVPSENIDHSELRVQQEWVDLPTWAGDYYLAVQVDGEYVKVWGYCTHTQLKHQGKYDPGDRTYSLDITDIVNDISVLAVARDLCPDEITRTAIAPLPTIPQEQAQNLITRLSNPEIINPRLAIPFQLWGALIEHGGWRQSLYERRLGLPEQRSVLQWLQSGVSQVAQTMGWGRLNLQLSAAGARSVEERQTGVTLSRRLTIAGQLYELLITPQGEPDAPYWRFELRNAAVGAVIPGGFKLRLLTEDLQSFPNNEDIATNAVEQLYVEVALEAGEGIVWEIEPLPENYDREILKF,not soluble
15,MGSDKIHHHHHHMTDTTIPNPLAPVKGANTTFWMYNSEGDPFASPLSDNNWLRLANVKDLQPGELTADAEDNNYLDDENADWKSTTQGQKSAGDTSVTLAWKPGEDVQKKLIQLFTTGQKRGFRIKYPNGTVDVFRGWVSSLGKTVQSKDEIARTVKITSVGRPYMAEEDAPEVVSVTGLTVEPTNATVKVGATTAVTFTVKPDNVTDKSLRIATSDPTTATVTQAENIATVKGVKAGTVKIIGMTTDGNFTAIADITVQA,not soluble
16,MGSDKIHHHHHHMTEEINYFWLNCGYNRWNHNEPLVGQTALFESGAHFNPTQGYRAFKKAKAGDQVIFYQVQTDSGLLGIGEIISVQSGAQNKIRVEFKFKETLKPLTTDYLKRSETLDFRMSNMRETLFNQIRESEFELIVSLGKGKSKIPRYFLLAETEAFEPGKNYTIFTHTFNGIKRNGYHFYTQLEVGDNIIIYNKYQNQSVIGIGEVSKHIHEKPPIPGRTNSTAIEIFYEKDIKPISLGHLNKHPKLKNLYFLQENAKQSIASMSQAQYDAILDMSMNNGIKHPFETVKKAELSTQNAEDDSLKPFVLLVVEQKGEGLKAAEELLQKTNANPVITSGHPDFTEDMLYGKYLPNESGALYYREGFITHLMPKKDKSYLVIDNFNRIDVDIFQTYINVLEGYEVTLPRYNKDGSMIKWSKNKDSFYHFNPNWHIVGITYDSIEKIKQKYSSQFLKYTRIVKVNHD,not soluble
17,MGSDKIHHHHHHMTEILLKELTKSDIDWMITTGNQQELAAGTILIQERGSTEFFHILLDGTFSVTLSQPENNPLTRAFAAIEGEEISGREIGRLSRGEIVGESPLIGTRPPATTITSVEKSLVISIPIRELAAKLQQDVGFAARFYRAIAIIISNRIENTIDQLGRRNLAQSQPLRDVLFILGELHDSDIDWMMASGTPQKIPANTILIHEQGTVDALYILLDGKMSLSISLDERNPLVRAFAAIEGNEISGREIAKLSKGEIIGETPFIDGSLPPTTVKAIEHSVVLSIPRQQLAAKLQQDIGFASRFYRVIASLLDQRLQPMVSQLGYGRRVYSRGESLHEGLEYDDELDINTLDRMAIAGKRFDWMLERLKVS,not soluble
18,MGSDKIHHHHHHMTENFWRELPRPFFVLAPMEDVTDVVFRHVVSEAGRPDVFFTEFTNSESYCHPDGKDSVRGRLTFTEDEQPIVAHIWGDKPENFRKMSIGMAELGFKGLDINMGCPVPNVAGNGKGSGLICRPAVAAELIQAAKAGGLPVSVKTRLGYTDVDEWREWLTHILKQDIANLSIHLRTRAEMSKVDAHWELIPEIKKLRDEVAPDTLLTINGDIPDRQTGLKLAEQYGVDGIMIGRGIFTNPFAFEKEPKEHSSKELLDLLRLHLDLHDEYSKEEARPYKPLPRFFKIYLRGFRGASELRNQCMNTKSTDEVRALLDDFERKYLDGIE,not soluble
